Assay results as given in the RNAGym collection of RNA variant scans (doi:10.1093/molbev/msab373).

B1: Azoarcus group I ribozyme (parent)
chain: GUGCCUUGCGCCGGGAAACCACGCAAGGGAUGGUGUCAAAUUCGGCGAAACCUAAGCGCCCGCCCGGGCGUAUGGCAACGCCGAGCCAAGCUUCGGCGCCUGCGCCGAUGAAGGUGUAGAGACUAGACGGCACCCACCUAAGGCAAACGCUAUGGUGAAGGCAUAGUCCAGGGAGUGGCGAAAGUCACACAAACCGG

Variants of: B1
Assay: reverse-splicing fitness (ratio to wild type); higher = more active; in vitro selection; Mg2+ level not given
Summary of the method: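 An in vitro group I ribozyme library with randomized positions was T7-transcribed and gel-purified. In triplicate, 10 pmol RNA in EPPS pH 7.5 was reacted with 50 pmoles of a 30-nt RNA substrate for 1 h at 37 °C across several added MgCl2 levels (1–48 mM), then stopped with EDTA. Products were reverse transcribed from a substrate-complementary primer, PCR-amplified and sequenced (HiSeq 4000). Fitness is a variant's read proportion after selection over that before, normalised to wild type.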
Work on GUGCCUUGCGCCGGGAAACCACGCAAGGGAUGGUGUCAAAUUCGGCGAAACCUAAGCGCCCGCCCGGGCGUAUGGCAACGCGGAGCCAAGCUUCGGCGCCUGCGCCGAUGAAGGUGUAGAGACUAGACGGCACCCACCUAAGGCUAACGAUAUGGUGAAGGCAUAGUCCAGGGAGAGGCGAAAGUCACACAAACCGG yielded a reverse-splicing fitness of 0.0428. GUGCCUUGCGCCGGGAAACCACGCAAGGGAUGGUGUCAAAUUCGGCGAAACCUAAGCGCCCGCCCGGGCGUAUGGCAACGCGGAGCCAAGCUUCGGCGCCUGCGCCGAUGAAGGUGUAGAGACUAGACGGCACCCACCUAAGGCGAACGCUAUGGUGAAGGCAUAGUCCAGGGAGCGGCGAAAGUCACACAAACCGG gave a reverse-splicing fitness of 0.374. Work on GUGCCUUGCGCCGGGAAACCACGCAAGGGAUGGUGUCAAAUUCGGCGAAACCUAAGCGCCCGCCCGGGCGUAUGGCAACGCGGAGCCAAGCUUCGGCGCCUGCGCCGAUGAAGGUGUAGAGACUAGACGGCACCCACCUAAGGCGAACGCUAUGGUGAAGGCAUAGUCCAGGGAGAGGCGAAAGUCACACAAACCGG yielded a reverse-splicing fitness of 0.341. GUGCCUUGCGCCGGGAAACCACGCAAGGGAUGGUGUCAAAUUCGGCGAAACCUAAGCGCCCGCCCGGGCGUAUGGCAACGCGGAGCCAAGCUUCGGCGCCUGCGCCGAUGAAGGUGUAGAGACUAGACGGCACCCACCUAAGGCGAACGCUAUGGUGAAGGCAUAGUCCAGGGAGGGGCGAAAGUCACACAAACCGG gave a reverse-splicing fitness of 0.133. GUGCCUUGCGCCGGGAAACCACGCAAGGGAUGGUGUCAAAUUCGGCGAAACCUAAGCGCCCGCCCGGGCGUAUGGCAACGCGGAGCCAAGCUUCGGCGCCUGCGCCGAUGAAGGUGUAGAGACUAGACGGCACCCACCUAAGGCGAACGCUAUGGUGAAGGCAUAGUCGAGGGAGUGGCGAAAGUCACACAAACCGG gave a reverse-splicing fitness of 0.0112. Work on GUGCCUUGCGCCGGGAAACCACGCAAGGGAUGGUGUCAAAUUCGGCGAAACCUAAGCGCCCGCCCGGGCGUAUGGCAACGCGGAGCCAAGCUUCGGCGCCUGCGCCGAUGAAGGUGUAGAGACUAGACGGCACCCACCUAAGGCGAACGCUAUGGUGAAGGCAUAGUCUAGGGAGUGGCGAAAGUCACACAAACCGG yielded a reverse-splicing fitness of 0.0164. Work on GUGCCUUGCGCCGGGAAACCACGCAAGGGAUGGUGUCAAAUUCGGCGAAACCUAAGCGCCCGCCCGGGCGUAUGGCAACGCGGAGCCAAGCUUCGGCGCCUGCGCCGAUGAAGGUGUAGAGACUAGACGGCACCCACCUAAGGCUAACGGUAUGGUGAAGGCAUAGUCCAGGGAGUGGCGAAAGUCACACAAACCGG yielded a reverse-splicing fitness of 0.0473. Variant GUGCCUUGCGCCGGGAAACCACGCAAGGGAUGGUGUCAAAUUCGGCGAAACCUAAGCGCCCGCCCGGGCGUAUGGCAACGCGGAGCCAAGCUUCGGCGCCUGCGCCGAUGAAGGUGUAGAGACUAGACGGCACCCACCUAAGGCUAACGAUAUGGUGAAGGCAUAGUCCAGGGAGUGGCGAAAGUCACACAAACCGG has a reverse-splicing fitness of 0.0405. GUGCCUUGCGCCGGGAAACCACGCAAGGGAUGGUGUCAAAUUCGGCGAAACCUAAGCGCCCGCCCGGGCGUAUGGCAACGCGGAGCCAAGCUUCGGCGCCUGCGCCGAUGAAGGUGUAGAGACUAGACGGCACCCACCUAAGGCUAACGAUAUGGUGAAGGCAUAGUCAAGGGAGCGGCGAAAGUCACACAAACCGG showed a reverse-splicing fitness of 0.0106. Variant GUGCCUUGCGCCGGGAAACCACGCAAGGGAUGGUGUCAAAUUCGGCGAAACCUAAGCGCCCGCCCGGGCGUAUGGCAACGCGGAGCCAAGCUUCGGCGCCUGCGCCGAUGAAGGUGUAGAGACUAGACGGCACCCACCUAAGGCUAACGAUAUGGUGAAGGCAUAGUCAAGGGAGAGGCGAAAGUCACACAAACCGG has a reverse-splicing fitness of 0.0121. With GUGCCUUGCGCCGGGAAACCACGCAAGGGAUGGUGUCAAAUUCGGCGAAACCUAAGCGCCCGCCCGGGCGUAUGGCAACGCGGAGCCAAGCUUCGGCGCCUGCGCCGAUGAAGGUGUAGAGACUAGACGGCACCCACCUAAGGCUAACGAUAUGGUGAAGGCAUAGUCAAGGGAGGGGCGAAAGUCACACAAACCGG the reverse-splicing fitness was 0.00561. Work on GUGCCUUGCGCCGGGAAACCACGCAAGGGAUGGUGUCAAAUUCGGCGAAACCUAAGCGCCCGCCCGGGCGUAUGGCAACGCGGAGCCAAGCUUCGGCGCCUGCGCCGAUGAAGGUGUAGAGACUAGACGGCACCCACCUAAGGCUAACGAUAUGGUGAAGGCAUAGUCUAGGGAGAGGCGAAAGUCACACAAACCGG yielded a reverse-splicing fitness of 0.0124. In the case of GUGCCUUGCGCCGGGAAACCACGCAAGGGAUGGUGUCAAAUUCGGCGAAACCUAAGCGCCCGCCCGGGCGUAUGGCAACGCGGAGCCAAGCUUCGGCGCCUGCGCCGAUGAAGGUGUAGAGACUAGACGGCACCCACCUAAGGCUAACGAUAUGGUGAAGGCAUAGUCUAGGGAGCGGCGAAAGUCACACAAACCGG, the reverse-splicing fitness is reported as 0.013. For GUGCCUUGCGCCGGGAAACCACGCAAGGGAUGGUGUCAAAUUCGGCGAAACCUAAGCGCCCGCCCGGGCGUAUGGCAACGCGGAGCCAAGCUUCGGCGCCUGCGCCGAUGAAGGUGUAGAGACUAGACGGCACCCACCUAAGGCUAACGAUAUGGUGAAGGCAUAGUCUAGGGAGGGGCGAAAGUCACACAAACCGG, the reverse-splicing fitness was 0.00507. For GUGCCUUGCGCCGGGAAACCACGCAAGGGAUGGUGUCAAAUUCGGCGAAACCUAAGCGCCCGCCCGGGCGUAUGGCAACGCGGAGCCAAGCUUCGGCGCCUGCGCCGAUGAAGGUGUAGAGACUAGACGGCACCCACCUAAGGCGAACGCUAUGGUGAAGGCAUAGUCAAGGGAGGGGCGAAAGUCACACAAACCGG, the reverse-splicing fitness was 0.00413.
